Measurements from the Human Domainome abundance scans (Beltran et al. 2025).
± gives the uncertainty stated by the source.

B1: Gamma-crystallin S, residues 96 to 176; numbered along this chain, P22914 (parent)
chain: IQIFEKGDFSGQMYETTEDCPSIMEQFHMREIHSCKVLEGVWIFYELPNYRGRQYLLDKKEYRKPIDWGAASPAVQSFRRI

Variants of: B1
Test: abundance fitness (aPCA) (normalised: wild type 0, dead -1); higher = more abundant; growth selection in yeast, the domain comes from the species named
Settings: Homo sapiens

Variant	abundance fitness
IQIFEKGDFSGQMYETTEDCPSIMEQFHMREIHSEKVLEGVWIFYELPNYRGRQYLLDKKEYRKPIDWGAASPAVQSFRRI	-0.952 ± 0.14
IQIFEKGDFSGQMYETTEDCPSIMEQFHMREIHSTKVLEGVWIFYELPNYRGRQYLLDKKEYRKPIDWGAASPAVQSFRRI	0.074 ± 0.07
IQIFEKGDFSGQMYETTEDCPSIMEQFHMREIHSAKVLEGVWIFYELPNYRGRQYLLDKKEYRKPIDWGAASPAVQSFRRI	-0.027 ± 0.053
IQIFEKGDFSGQMYETTEDCPSIMEQFHMREIHSVKVLEGVWIFYELPNYRGRQYLLDKKEYRKPIDWGAASPAVQSFRRI	0.021 ± 0.048
IQIFEKGDFSGQMYETTEDCPSIMEQFHMREIHSIKVLEGVWIFYELPNYRGRQYLLDKKEYRKPIDWGAASPAVQSFRRI	-0.039 ± 0.1
IQIFEKGDFSGQMYETTEDCPSIMEQFHMREIHSYKVLEGVWIFYELPNYRGRQYLLDKKEYRKPIDWGAASPAVQSFRRI	-0.217 ± 0.11
IQIFEKGDFSGQMYETTEDCPSIMEQFHMREIHSWKVLEGVWIFYELPNYRGRQYLLDKKEYRKPIDWGAASPAVQSFRRI	-0.006 ± 0.047
IQIFEKGDFSGQMYETTEDCPSIMEQFHMREIHSHKVLEGVWIFYELPNYRGRQYLLDKKEYRKPIDWGAASPAVQSFRRI	-0.769 ± 0.23
IQIFEKGDFSGQMYETTEDCPSIMEQFHMREIHSLKVLEGVWIFYELPNYRGRQYLLDKKEYRKPIDWGAASPAVQSFRRI	0.102 ± 0.042
IQIFEKGDFSGQMYETTEDCPSIMEQFHMREIHSNKVLEGVWIFYELPNYRGRQYLLDKKEYRKPIDWGAASPAVQSFRRI	-0.529 ± 0.12
IQIFEKGDFSGQMYETTEDCPSIMEQFHMREIHSMKVLEGVWIFYELPNYRGRQYLLDKKEYRKPIDWGAASPAVQSFRRI	0.111 ± 0.046
IQIFEKGDFSGQMYETTEDCPSIMEQFHMREIHSFKVLEGVWIFYELPNYRGRQYLLDKKEYRKPIDWGAASPAVQSFRRI	0.133 ± 0.071
IQIFEKGDFSGQMYETTEDCPSIMEQFHMREIHSPKVLEGVWIFYELPNYRGRQYLLDKKEYRKPIDWGAASPAVQSFRRI	-0.788 ± 0.12
IQIFEKGDFSGQMYETTEDCPSIMEQFHMREIHSRKVLEGVWIFYELPNYRGRQYLLDKKEYRKPIDWGAASPAVQSFRRI	-0.987 ± 0.077
IQIFEKGDFSGQMYETTEDCPSIMEQFHMREIHSQKVLEGVWIFYELPNYRGRQYLLDKKEYRKPIDWGAASPAVQSFRRI	-0.803 ± 0.097
IQIFEKGDFSGQMYETTEDCPSIMEQFHMREIHSKKVLEGVWIFYELPNYRGRQYLLDKKEYRKPIDWGAASPAVQSFRRI	-1.01 ± 0.21
IQIFEKGDFSGQMYETTEDCPSIMEQFHMREIHSGKVLEGVWIFYELPNYRGRQYLLDKKEYRKPIDWGAASPAVQSFRRI	0.048 ± 0.033
IQIFEKGDFSGQMYETTEDCPSIMEQFHMREIHSSKVLEGVWIFYELPNYRGRQYLLDKKEYRKPIDWGAASPAVQSFRRI	0.052 ± 0.044
IQIFEKGDFSGQMYETTEDCPSIMEQFHMREIHSCKNLEGVWIFYELPNYRGRQYLLDKKEYRKPIDWGAASPAVQSFRRI	0.087 ± 0.11
IQIFEKGDFSGQMYETTEDCPSIMEQFHMREIHSCKLLEGVWIFYELPNYRGRQYLLDKKEYRKPIDWGAASPAVQSFRRI	0.023 ± 0.039
IQIFEKGDFSGQMYETTEDCPSIMEQFHMREIHSCKDLEGVWIFYELPNYRGRQYLLDKKEYRKPIDWGAASPAVQSFRRI	-0.166 ± 0.066
IQIFEKGDFSGQMYETTEDCPSIMEQFHMREIHSCKGLEGVWIFYELPNYRGRQYLLDKKEYRKPIDWGAASPAVQSFRRI	-0.075 ± 0.04
IQIFEKGDFSGQMYETTEDCPSIMEQFHMREIHSCKMLEGVWIFYELPNYRGRQYLLDKKEYRKPIDWGAASPAVQSFRRI	0.049 ± 0.057

Variant	abundance fitness
IQIFEKGDFSGQMYETTEDCPSIMEQFHMREIHSCKCLEGVWIFYELPNYRGRQYLLDKKEYRKPIDWGAASPAVQSFRRI	0.075 ± 0.058
IQIFEKGDFSGQMYETTEDCPSIMEQFHMREIHSCKILEGVWIFYELPNYRGRQYLLDKKEYRKPIDWGAASPAVQSFRRI	-0.142 ± 0.12
IQIFEKGDFSGQMYETTEDCPSIMEQFHMREIHSCKALEGVWIFYELPNYRGRQYLLDKKEYRKPIDWGAASPAVQSFRRI	0.081 ± 0.039
IQIFEKGDFSGQMYETTEDCPSIMEQFHMREIHSCKKLEGVWIFYELPNYRGRQYLLDKKEYRKPIDWGAASPAVQSFRRI	0.027 ± 0.067
IQIFEKGDFSGQMYETTEDCPSIMEQFHMREIHCCKVLEGVWIFYELPNYRGRQYLLDKKEYRKPIDWGAASPAVQSFRRI	-0.047 ± 0.056
IQIFEKGDFSGQMYETTEDCPSIMEQFHMREIHFCKVLEGVWIFYELPNYRGRQYLLDKKEYRKPIDWGAASPAVQSFRRI	-1.06 ± 0.2
IQIFEKGDFSGQMYETTEDCPSIMEQFHMREIHACKVLEGVWIFYELPNYRGRQYLLDKKEYRKPIDWGAASPAVQSFRRI	-0.004 ± 0.045
IQIFEKGDFSGQMYETTEDCPSIMEQFHMREIHYCKVLEGVWIFYELPNYRGRQYLLDKKEYRKPIDWGAASPAVQSFRRI	-0.646 ± 0.17
IQIFEKGDFSGQMYETTEDCPSIMEQFHMREIHPCKVLEGVWIFYELPNYRGRQYLLDKKEYRKPIDWGAASPAVQSFRRI	-1.08 ± 0.23
IQIFEKGDFSGQMYETTEDCPSIMEQFHMREIHECKVLEGVWIFYELPNYRGRQYLLDKKEYRKPIDWGAASPAVQSFRRI	-0.772 ± 0.097
IQIFEKGDFSGQMYETTEDCPSIMEQFHMREIHLCKVLEGVWIFYELPNYRGRQYLLDKKEYRKPIDWGAASPAVQSFRRI	-0.967 ± 0.12
IQIFEKGDFSGQMYETTEDCPSIMEQFHMREIHKCKVLEGVWIFYELPNYRGRQYLLDKKEYRKPIDWGAASPAVQSFRRI	-0.954 ± 0.15
IQIFEKGDFSGQMYETTEDCPSIMEQFHMREIHHCKVLEGVWIFYELPNYRGRQYLLDKKEYRKPIDWGAASPAVQSFRRI	-0.641 ± 0.16
IQIFEKGDFSGQMYETTEDCPSIMEQFHMREIHDCKVLEGVWIFYELPNYRGRQYLLDKKEYRKPIDWGAASPAVQSFRRI	-0.898 ± 0.28
IQIFEKGDFSGQMYETTEDCPSIMEQFHMREIHMCKVLEGVWIFYELPNYRGRQYLLDKKEYRKPIDWGAASPAVQSFRRI	-0.779 ± 0.16
IQIFEKGDFSGQMYETTEDCPSIMEQFHMREIHNCKVLEGVWIFYELPNYRGRQYLLDKKEYRKPIDWGAASPAVQSFRRI	-0.434 ± 0.12
IQIFEKGDFSGQMYETTEDCPSIMEQFHMREIHTCKVLEGVWIFYELPNYRGRQYLLDKKEYRKPIDWGAASPAVQSFRRI	-0.601 ± 0.099
IQIFEKGDFSGQMYETTEDCPSIMEQFHMREIHRCKVLEGVWIFYELPNYRGRQYLLDKKEYRKPIDWGAASPAVQSFRRI	-0.623 ± 0.06
IQIFEKGDFSGQMYETTEDCPSIMEQFHMREIHQCKVLEGVWIFYELPNYRGRQYLLDKKEYRKPIDWGAASPAVQSFRRI	-0.485 ± 0.11
IQIFEKGDFSGQMYETTEDCPSIMEQFHMREIHGCKVLEGVWIFYELPNYRGRQYLLDKKEYRKPIDWGAASPAVQSFRRI	0.06 ± 0.035
IQIFEKGDFSGQMYETTEDCPSIMEQFHMREIHICKVLEGVWIFYELPNYRGRQYLLDKKEYRKPIDWGAASPAVQSFRRI	-0.844 ± 0.34
IQIFEKGDFSGQMYETTEDCPSIMEQFHMREIWSCKVLEGVWIFYELPNYRGRQYLLDKKEYRKPIDWGAASPAVQSFRRI	0.062 ± 0.05
IQIFEKGDFSGQMYETTEDCPSIMEQFHMREISSCKVLEGVWIFYELPNYRGRQYLLDKKEYRKPIDWGAASPAVQSFRRI	0.03 ± 0.047

Variant	abundance fitness
IQIFEKGDFSGQMYETTEDCPSIMEQFHMREIQSCKVLEGVWIFYELPNYRGRQYLLDKKEYRKPIDWGAASPAVQSFRRI	-0.023 ± 0.067
IQIFEKGDFSGQMYETTEDCPSIMEQFHMREIRSCKVLEGVWIFYELPNYRGRQYLLDKKEYRKPIDWGAASPAVQSFRRI	-0.047 ± 0.037
IQIFEKGDFSGQMYETTEDCPSIMEQFHMREIYSCKVLEGVWIFYELPNYRGRQYLLDKKEYRKPIDWGAASPAVQSFRRI	0.02 ± 0.062
IQIFEKGDFSGQMYETTEDCPSIMEQFHMREIVSCKVLEGVWIFYELPNYRGRQYLLDKKEYRKPIDWGAASPAVQSFRRI	-0.013 ± 0.039
IQIFEKGDFSGQMYETTEDCPSIMEQFHMREITSCKVLEGVWIFYELPNYRGRQYLLDKKEYRKPIDWGAASPAVQSFRRI	0.06 ± 0.058
IQIFEKGDFSGQMYETTEDCPSIMEQFHMREIHSCCVLEGVWIFYELPNYRGRQYLLDKKEYRKPIDWGAASPAVQSFRRI	-0.078 ± 0.064
IQIFEKGDFSGQMYETTEDCPSIMEQFHMREIHSCDVLEGVWIFYELPNYRGRQYLLDKKEYRKPIDWGAASPAVQSFRRI	-0.019 ± 0.083
IQIFEKGDFSGQMYETTEDCPSIMEQFHMREIHSCIVLEGVWIFYELPNYRGRQYLLDKKEYRKPIDWGAASPAVQSFRRI	-0.045 ± 0.11
IQIFEKGDFSGQMYETTEDCPSIMEQFHMREIHSCGVLEGVWIFYELPNYRGRQYLLDKKEYRKPIDWGAASPAVQSFRRI	-0.171 ± 0.037
IQIFEKGDFSGQMYETTEDCPSIMEQFHMREIHSCWVLEGVWIFYELPNYRGRQYLLDKKEYRKPIDWGAASPAVQSFRRI	0.15 ± 0.052
IQIFEKGDFSGQMYETTEDCPSIMEQFHMREIHSCTVLEGVWIFYELPNYRGRQYLLDKKEYRKPIDWGAASPAVQSFRRI	-0.019 ± 0.057
IQIFEKGDFSGQMYETTEDCPSIMEQFHMREIHSCYVLEGVWIFYELPNYRGRQYLLDKKEYRKPIDWGAASPAVQSFRRI	0.068 ± 0.092
IQIFEKGDFSGQMYETTEDCPSIMEQFHMREIHSCMVLEGVWIFYELPNYRGRQYLLDKKEYRKPIDWGAASPAVQSFRRI	0.024 ± 0.075
IQIFEKGDFSGQMYETTEDCPSIMEQFHMREIHSCPVLEGVWIFYELPNYRGRQYLLDKKEYRKPIDWGAASPAVQSFRRI	-1.19 ± 0.21
IQIFEKGDFSGQMYETTEDCPSIMEQFHMREIHSCNVLEGVWIFYELPNYRGRQYLLDKKEYRKPIDWGAASPAVQSFRRI	-0.037 ± 0.12
IQIFEKGDFSGQMYETTEDCPSIMEQFHMREIHSCAVLEGVWIFYELPNYRGRQYLLDKKEYRKPIDWGAASPAVQSFRRI	0.017 ± 0.045
IQIFEKGDFSGQMYETTEDCPSIMEQFHMREIHSCSVLEGVWIFYELPNYRGRQYLLDKKEYRKPIDWGAASPAVQSFRRI	0.015 ± 0.048
IQIFEKGDFSGQMYETTEDCPSIMEQFHMREIHSCEVLEGVWIFYELPNYRGRQYLLDKKEYRKPIDWGAASPAVQSFRRI	-0.021 ± 0.055
IQIFEKGDFSGQMYETTEDCPSIMEQFHMREIHSCFVLEGVWIFYELPNYRGRQYLLDKKEYRKPIDWGAASPAVQSFRRI	0.1 ± 0.073
IQIFEKGDFSGQMYETTEDCPSIMEQFHMREIHSCQVLEGVWIFYELPNYRGRQYLLDKKEYRKPIDWGAASPAVQSFRRI	-0.002 ± 0.07
IQIFEKGDFSGQMYETTEDCPSIMEQFHMREIHSCHVLEGVWIFYELPNYRGRQYLLDKKEYRKPIDWGAASPAVQSFRRI	-0.013 ± 0.086
IQIFEKGDFSGQMYETTEDCPSIMEQFHMREIHSCRVLEGVWIFYELPNYRGRQYLLDKKEYRKPIDWGAASPAVQSFRRI	0.022 ± 0.035
